{"source": "paper PMC10104637", "about": "“Phosphorylation of USP29 by CDK1 Governs TWIST1 Stability and Oncogenic Functions” (Advanced Science, 2023)", "binders": {"B1": {"name": "His-TWIST1 (natural protein, UniProt Q15672 1-202, looked up)", "chain": "MMQDVSSSPVSPADDSLSNSEEEPDRQQPPSGKRGGRKRRSSRRSAGGGAGPGGAAGGGVGGGDEPGSPAQGKRGKKSAGCGGGGGAGGGGGSSSGGGSPQSYEELQTQRVMANVRERQRTQSLNEAFAALRKIIPTLPSDKLSKIQTLKLAARYIDFLYQVLQSDELDSKMASCSYVAHERLSYAFSVWRMEGAWSMSASH", "notes": "TWIST1 cloned into PET28A; also called PET28A-TWIST1; source: E. coli BL21, purified"}}, "target": "T1, GST-USP29 (UniProt Q9HBJ7 1-922)", "T1 construct": "USP29 cloned into pGEX-4T-1; also called purified GST-USP29; GST-USP29 WT; source: E. coli BL21, purified (Pierce Glutathione Agarose)", "T1 sequence (looked up)": "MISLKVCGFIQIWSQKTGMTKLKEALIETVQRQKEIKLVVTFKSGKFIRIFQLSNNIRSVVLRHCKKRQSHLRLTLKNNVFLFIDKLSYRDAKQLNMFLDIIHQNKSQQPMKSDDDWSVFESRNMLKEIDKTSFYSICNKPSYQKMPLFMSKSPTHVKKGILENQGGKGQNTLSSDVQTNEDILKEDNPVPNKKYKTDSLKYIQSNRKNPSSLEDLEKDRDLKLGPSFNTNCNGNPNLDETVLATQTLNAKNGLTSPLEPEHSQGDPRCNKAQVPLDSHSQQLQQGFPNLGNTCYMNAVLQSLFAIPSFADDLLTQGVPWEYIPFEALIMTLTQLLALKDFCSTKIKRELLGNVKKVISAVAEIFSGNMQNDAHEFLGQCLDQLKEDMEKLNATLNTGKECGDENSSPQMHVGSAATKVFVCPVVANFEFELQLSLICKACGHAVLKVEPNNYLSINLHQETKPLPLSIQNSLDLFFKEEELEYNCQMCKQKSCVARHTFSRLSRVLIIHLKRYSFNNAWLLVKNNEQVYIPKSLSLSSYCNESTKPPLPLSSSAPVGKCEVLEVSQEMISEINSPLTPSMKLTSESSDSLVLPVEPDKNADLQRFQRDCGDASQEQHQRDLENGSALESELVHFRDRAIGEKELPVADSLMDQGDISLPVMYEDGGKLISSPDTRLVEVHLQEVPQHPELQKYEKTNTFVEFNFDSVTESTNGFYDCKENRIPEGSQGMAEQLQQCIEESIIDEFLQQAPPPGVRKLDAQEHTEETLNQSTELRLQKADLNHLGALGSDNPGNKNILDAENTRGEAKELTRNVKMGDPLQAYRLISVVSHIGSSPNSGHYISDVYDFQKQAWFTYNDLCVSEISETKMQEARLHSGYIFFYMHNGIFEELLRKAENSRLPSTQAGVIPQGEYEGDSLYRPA", "assay": "pull-down; GST or GST-USP29 bound to Pierce Glutathione Agarose incubated with the purified His-tagged protein overnight at 4 °C; beads washed four times with PBS; western blot", "details": "both partners purified", "data": [{"binder": "B1", "values": [{"measurement": "binding result", "value": "binds"}]}]}
